Laboratory results reported in US20190315873A1 (AGOMAB THERAPEUTICS, published 2019).

B1: 71G3 llama-mouse chimeric mAb (mouse IgG1/lambda) (antibody)
heavy: QVQLVESGGGLVQPGGSLRVSCAASGFTFSTYYMSWVRQAPGKGLEWVSDIRTDGGTYYADSVKGRFTMSRDNAKNTLYLQMNSLKPEDTALYYCARTRIFPSGYDYWGQGTQVTVSSAKTTPPSVYPLAPGSAAQTNSMVTLGCLVKGYFPEPVTVTWNSGSLSSGVHTFPAVLQSDLYTLSSSVTVPSSPRPSETVTCNVAHPASSTKVDKKIVPRDCGCKPCICTVPEVSSVFIFPPKPKDVLTITLTPKVTCVVVDISKDDPEVQFSWFVDDVEVHTAQTQPREEQFNSTFRSVSELPIMHQDWLNGKEFKCRVNSAAFPAPIEKTISKTKGRPKAPQVYTIPPPKEQMAKDKVSLTCMITDFFPEDITVEWQWNGQPAENYKNTQPIMNTNGSYFVYSKLNVQKSNWEAGNTFTCSVLHEGLHNHHTEKSLSHSPGK
light: QAVVTQEPSLSVSPGGTVTLTCGLSSGSVTTSNYPGWFQQTPGQAPRTLIYNTNSRHSGVPSRFSGSISGNKAALTIMGAQPEDEADYYCSLYPGSTTVFGGGTHLTVLGQPKSSPSVTLFPPSSEELETNKATLVCTITDFYPGVVTVDWKVDGTPVTQGMETTQPSKQSNNKYMASSYLTLTARAWERHSSYSCQVTHEGHTVEKSLSRADCS
notes: also called 71G3 (mouse format)
B2: 71D6 llama-mouse chimeric mAb (mouse IgG1/lambda) (antibody)
heavy: ELQLVESGGGLVQPGGSLRLSCAASGFTFSSYGMSWVRQAPGKGLEWVSAINSYGGSTSYADSVKGRFTISRDNAKNTLYLQMNSLKPEDTAVYYCAKEVRADLSRYNDYESYDYWGQGTQVTVSSAKTTPPSVYPLAPGSAAQTNSMVTLGCLVKGYFPEPVTVTWNSGSLSSGVHTFPAVLQSDLYTLSSSVTVPSSPRPSETVTCNVAHPASSTKVDKKIVPRDCGCKPCICTVPEVSSVFIFPPKPKDVLTITLTPKVTCVVVDISKDDPEVQFSWFVDDVEVHTAQTQPREEQFNSTFRSVSELPIMHQDWLNGKEFKCRVNSAAFPAPIEKTISKTKGRPKAPQVYTIPPPKEQMAKDKVSLTCMITDFFPEDITVEWQWNGQPAENYKNTQPIMNTNGSYFVYSKLNVQKSNWEAGNTFTCSVLHEGLHNHHTEKSLSHSPGK
light: QPVLNQPSALSVTLGQTAKITCQGGSLGARYAHWYQQKPGQAPVLVIYDDDSRPSGIPERFSGSSSGGTATLTISGAQAEDEGDYYCQSADSSGSVFGGGTHLTVLGQPKSSPSVTLFPPSSEELETNKATLVCTITDFYPGVVTVDWKVDGTPVTQGMETTQPSKQSNNKYMASSYLTLTARAWERHSSYSCQVTHEGHTVEKSLSRADCS
notes: also called 71D6 (mouse format)
B3: 76H10 llama-human chimeric mAb (human IgG1/lambda) (antibody, V domains shown)
VH: QLQLVESGGGLVQPGGSLRVSCTASGFTFNTYYMTWVRQAPGKGLEWVSDINSGGGTYYADSVKGRFTISRDNAKNTLYLQMNSLKPEDTALYYCVRVRIWPVGYDYWGQGTQVTVSS
VL: QAVVTQEPSLSVSPGGTVTLTCGLSSGSVTTSNYPGWFQQTPGQAPRTLIYNTNNRHSGVPSRFSGSISGNKAALTITGAQPEDEADYYCSLYTGSYTTVFGGGTHLTVLQ
B4: 71G2 llama-mouse chimeric mAb (mouse IgG1/lambda) (antibody)
heavy: EVQLQESGGGLVQPGGSLRLSCAASGFTFSIYDMSWVRQAPGKGLEWVSTINSDGSSTSYVDSVKGRFTISRDNAKNTLYLQMNSLKPEDTAVYYCAKVYGSTWDVGPMGYGMDYWGKGTLVTVSSAKTTPPSVYPLAPGSAAQTNSMVTLGCLVKGYFPEPVTVTWNSGSLSSGVHTFPAVLQSDLYTLSSSVTVPSSPRPSETVTCNVAHPASSTKVDKKIVPRDCGCKPCICTVPEVSSVFIFPPKPKDVLTITLTPKVTCVVVDISKDDPEVQFSWFVDDVEVHTAQTQPREEQFNSTFRSVSELPIMHQDWLNGKEFKCRVNSAAFPAPIEKTISKTKGRPKAPQVYTIPPPKEQMAKDKVSLTCMITDFFPEDITVEWQWNGQPAENYKNTQPIMNTNGSYFVYSKLNVQKSNWEAGNTFTCSVLHEGLHNHHTEKSLSHSPGK
light: SSALTQPSALSVSLGQTARITCQGGSLGSSYAHWYQQKPGQAPVLVIYGDDSRPSGIPERFSGSSSGGTATLTISGAQAEDEDDYYCQSTDSSGNTVFGGGTRLTVLGQPKSSPSVTLFPPSSEELETNKATLVCTITDFYPGVVTVDWKVDGTPVTQGMETTQPSKQSNNKYMASSYLTLTARAWERHSSYSCQVTHEGHTVEKSLSRADCS
notes: also called 71G2 (mouse format)

Columns and labels:
human MET ECD [1] = biological target: T1, human MET ECD (human, UniProt P08581 25-932); experiment: ELISA: MET ECD immobilized (100 ng/well), mAb in human IgG1/lambda format in solution (0-40 nM), HRP anti-human Fc
T1 construct: range 1-932; recombinant ECD made by standard protein engineering; also called hMET; human MET extracellular domain
Excerpt: (§1) To this end, we investigated whether our human/mouse equivalent anti-MET antibodies cross-reacted with MET from other species, including rat (Rattus norvegicus) and cynomolgus monkey (Macaca fascicularis). […] Human and mouse MET ECD were used as controls. A restricted panel of antibodies representative of both SEMA binders (71D6, 71C3, 71D4, 71A3, 71G2) and PSI binders (76H10, 71G3) was selected. The 5D5 prior art antibody was used as control. MET ECD proteins were immobilized in solid phase (100 ng/well in a 96-well plate) and exposed to increasing concentrations (0-40 nM) of antibodies (with human constant regions) in solution. […] We conclude that the 71D6, 71C3, 71D4, 71A3, 71G2, 76H10 and 71G3 antibodies bind with similar affinity and capacity to human MET, mouse MET, rat MET and simian MET, at least as determined by ELISA.

[2] = biological target: monkey MET ECD (cynomolgus monkey); experiment: as above
Sequence of monkey MET ECD (cynomolgus monkey) (A0A2K5 entry or part of it limits assumed): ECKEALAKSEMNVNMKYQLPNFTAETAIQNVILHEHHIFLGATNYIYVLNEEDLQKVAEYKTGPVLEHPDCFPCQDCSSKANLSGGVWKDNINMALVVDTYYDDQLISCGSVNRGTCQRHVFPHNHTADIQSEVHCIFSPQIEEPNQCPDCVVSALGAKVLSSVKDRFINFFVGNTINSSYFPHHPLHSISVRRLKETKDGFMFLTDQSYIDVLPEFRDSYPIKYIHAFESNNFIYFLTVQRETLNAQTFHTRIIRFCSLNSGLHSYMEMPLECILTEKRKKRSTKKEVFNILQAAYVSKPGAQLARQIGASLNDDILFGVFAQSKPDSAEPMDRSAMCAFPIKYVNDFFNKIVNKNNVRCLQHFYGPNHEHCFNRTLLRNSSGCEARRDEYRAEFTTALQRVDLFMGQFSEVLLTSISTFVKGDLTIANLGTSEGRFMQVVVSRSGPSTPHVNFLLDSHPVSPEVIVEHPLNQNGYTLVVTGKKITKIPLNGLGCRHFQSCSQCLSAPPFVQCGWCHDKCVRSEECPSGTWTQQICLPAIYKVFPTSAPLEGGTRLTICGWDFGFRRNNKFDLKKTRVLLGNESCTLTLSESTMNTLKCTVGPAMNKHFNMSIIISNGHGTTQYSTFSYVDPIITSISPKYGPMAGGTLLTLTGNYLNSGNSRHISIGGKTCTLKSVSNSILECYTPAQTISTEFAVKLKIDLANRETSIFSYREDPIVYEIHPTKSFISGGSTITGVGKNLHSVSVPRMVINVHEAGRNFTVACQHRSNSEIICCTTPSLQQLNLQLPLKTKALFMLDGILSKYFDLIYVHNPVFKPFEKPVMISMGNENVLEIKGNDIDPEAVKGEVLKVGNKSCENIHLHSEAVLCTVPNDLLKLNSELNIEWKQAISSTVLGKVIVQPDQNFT

human MET ECD [3] = biological target: T1, human MET ECD; experiment: ELISA, mouse-format mAb on MET ECD
Experimental: (§2) In order to directly determine whether—and to what extent—the prior art agonistic anti-MET antibodies cross-reacted with mouse MET, and to compare them to our human/mouse equivalent anti-MET antibodies, we performed an ELISA assay. Since all prior art antibodies were obtained or engineered with a mouse IgG/A format, we employed the mouse IgG/A version of 71G3, 71D6 and 71G2. Human or mouse MET ECD was immobilized in solid phase (100 ng/well in a 96-well plate) and exposed to increasing concentrations of antibodies (0-40 nM) in solution. […] Among the antibodies tested, only 71G3, 71D6 and 71G2 bound to both human and mouse MET, and they did so with indistinguishable affinities and capacities.

mouse MET ECD [4] = biological target: T2, mouse MET ECD (mouse, UniProt P16056 25-931); experiment: ELISA, mouse-format mAb on MET ECD
T2 construct: range 1-931; recombinant ECD; also called mMET; mouse MET extracellular domain
Experimental: as §2

[5] = biological target: T3, mouse MET on MLP29 mouse liver precursor cells (mouse, UniProt P16056 25-1379); experiment: flow cytometry, MLP29 cells
T3 construct: whole, on cells; also called native mouse MET

mouse MET ECD [6] = biological target: T2, mouse MET ECD; experiment: ELISA on MET ECD
[7] = biological target: T4, human MET on A549 human lung carcinoma cells (human, UniProt P08581 25-1390); experiment: flow cytometry, A549 cells
T4 construct: whole, on cells; also called native human MET

[8] = biological target: T3, mouse MET on MLP29 mouse liver …; experiment: cell-based or functional assay
[9] = biological target: T4, human MET on A549 human lung carcinoma …; experiment: cell-based or functional assay
human MET ECD [10] = biological target: T1, human MET ECD; experiment: ELISA on MET ECD
[11] = biological target: human MET ECD mutant I (mutations 6, 7, 8) (human) (UniProt P08581); experiment: ELISA on mutant human MET ECD
[12] = biological target: human MET ECD mutant J (mutations 6, 7) (human) (UniProt P08581); experiment: ELISA on mutant human MET ECD
monkey MET ECD = biological target: T5, monkey MET ECD (cynomolgus monkey, UniProt A0A2K5UM36 25-932); experiment: ELISA: MET ECD immobilized (100 ng/well), mAb in human IgG1/lambda format in solution (0-40 nM), HRP anti-human Fc
T5 construct: also called simian MET; cynomolgus monkey MET
T5 sequence (A0A2K5UM36 entry or part of it limits assumed): as the sequence (A0A2K5 entry or part of it limits assumed) above
Excerpt: as §1

mouse MET ECD [13] = biological target: T2, mouse MET ECD; experiment: as above
Excerpt: as §1

rat MET ECD (rat) = rat MET ECD (rat) (UniProt P97523); experiment: as above
Sequence of rat MET ECD (rat) (P97523 25-931 limits assumed, form in doubt): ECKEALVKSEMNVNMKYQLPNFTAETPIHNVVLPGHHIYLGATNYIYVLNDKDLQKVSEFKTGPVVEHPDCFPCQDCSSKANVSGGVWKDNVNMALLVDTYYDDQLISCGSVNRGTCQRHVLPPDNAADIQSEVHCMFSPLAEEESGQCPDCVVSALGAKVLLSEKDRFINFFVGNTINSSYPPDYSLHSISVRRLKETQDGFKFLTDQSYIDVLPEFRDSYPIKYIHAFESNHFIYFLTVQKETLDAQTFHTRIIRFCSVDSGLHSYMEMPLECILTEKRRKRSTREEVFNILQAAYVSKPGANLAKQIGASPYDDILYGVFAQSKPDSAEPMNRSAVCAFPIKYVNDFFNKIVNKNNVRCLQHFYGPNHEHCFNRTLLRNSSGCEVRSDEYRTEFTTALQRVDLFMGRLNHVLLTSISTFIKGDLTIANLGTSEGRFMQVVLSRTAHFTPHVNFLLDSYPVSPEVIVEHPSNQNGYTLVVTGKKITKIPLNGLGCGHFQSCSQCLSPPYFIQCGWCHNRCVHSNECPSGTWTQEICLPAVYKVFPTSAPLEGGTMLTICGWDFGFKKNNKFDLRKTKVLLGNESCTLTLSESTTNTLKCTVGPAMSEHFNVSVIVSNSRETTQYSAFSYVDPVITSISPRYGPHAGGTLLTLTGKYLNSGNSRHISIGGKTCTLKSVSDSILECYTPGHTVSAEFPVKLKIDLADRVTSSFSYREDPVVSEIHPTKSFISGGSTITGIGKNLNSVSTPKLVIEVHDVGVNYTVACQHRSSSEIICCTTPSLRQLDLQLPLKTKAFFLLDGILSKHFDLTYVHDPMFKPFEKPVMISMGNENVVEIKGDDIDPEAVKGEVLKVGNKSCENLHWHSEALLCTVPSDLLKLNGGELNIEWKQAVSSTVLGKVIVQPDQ

Molecule	EC50 (read off the curve) (human MET ECD [1]) [nM]	EC50 (read off the curve) [2] [nM]	EC50 (human MET ECD [3]) [nM]	EMAX (human MET ECD [3]) [OD450]	EMAX (mouse MET ECD [4]) [OD450]	EMAX [5] [% CTR]	EC50 (mouse MET ECD [6]) [nM]	EMAX [7] [% CTR]	MLP29 MET act. EMAX [8] [% HGF]	A549 MET act. EMAX [9] [% HGF]	EC50 (mouse MET ECD [4]) [nM]	EC50 (human MET ECD [10]) [nM]	% binding (EMAX) vs WT MET ECD [11] [%]	% binding (EMAX) vs WT MET ECD [12] [%]	EC50 (read off the curve) (monkey MET ECD) [nM]	EC50 (read off the curve) (mouse MET ECD [13]) [nM]	EC50 (read off the curve) (rat MET ECD (rat)) [nM]
5D5 anti-human MET antibody, human IgG1/lambda format	0.2	0.3															
B1			0.058	3.11	3.06	110	0.062	116	91.9	90.8							
B2			0.042	2.69	2.94	119		122	103	98.3	0.044	0.038					
B3	~0.1												100	89	~0.04	~0.03	0.1
B4			0.098	2.86	2.96	128	0.109	142	102	102	0.091	0.113					
